± gives the standard deviation of the averaged measurements.
Columns and labels:
Saccharomyces cerevisiae [1] = assay: protein stability index of tFT-peptide fusion (C-terminal peptide) (PSI (0-1 scale)); higher = more stable (slower turnover); conditions: genetic background: wild type; temperature: 30 C
Saccharomyces cerevisiae [2] = assay: as above
Procedure: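 MPS profiling in S. cerevisiae of the tFT-X12 degron library: putative degron peptides plus stable controls, 12 aa, fused to the C-terminus of a sfGFP-mCherry timer. Cells are FACS-sorted into 8 mCherry/sfGFP bins and deep-sequenced. PSI runs from 0 (unstable) to 1 (stable). Backgrounds are wild type, das1Δ and doa10Δ at 30 °C, and wild type, das1Δ, cdc34-1 and cdc53-1 at 37 °C; 2-3 technical replicates each.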

[3] = genetic background: cdc34-1, temperature: 37 C
[4] = genetic background: cdc53-1, temperature: 37 C
[5] = genetic background: das1 deletion, temperature: 30 C
[6] = genetic background: das1 deletion, temperature: 37 C
[7] = genetic background: doa10 deletion, temperature: 30 C
[8] = genetic background: wild type, temperature: 30 C
[9] = genetic background: wild type, temperature: 37 C
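Further: PSI is a weighted mean of sequencing reads over stability bins, variants kept only with over 10 reads, mCherry proximal and sfGFP distal, peptide attached via GGGS linker.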

Sequence	protein stability index (Saccharomyces cerevisiae [1])	protein stability index (Saccharomyces cerevisiae [2]; [3])	protein stability index (Saccharomyces cerevisiae [2]; [4])	protein stability index (Saccharomyces cerevisiae [2]; [5])	protein stability index (Saccharomyces cerevisiae [2]; [6])	protein stability index (Saccharomyces cerevisiae [2]; [7])	protein stability index (Saccharomyces cerevisiae [2]; [8])	protein stability index (Saccharomyces cerevisiae [2]; [9])
LFYATRLLFLCI	0.367 ± 0.0039	0.415 ± 0.034	0.432 ± 0.028	0.411 ± 0.053	0.5185 ± 0.0026	0.34042 ± 0.00025	0.3 ± 0.023	0.4454 ± 0.002
TPPFFDIFVVLL	0.46 ± 0.037	0.576 ± 0.052	0.652 ± 0.023	0.463 ± 0.027	0.6652 ± 0.0032	0.456 ± 0.021	0.48 ± 0.031	0.616 ± 0.043
RGGGGGTWVKMG	0.258 ± 0.055	0.592 ± 0.011	0.733 ± 0.0075	0.653 ± 0.029	0.758 ± 0.012	0.118 ± 0.025	0.135 ± 0.02	0.217 ± 0.016
RQRQLAKKQKNA	0.322 ± 0.016	0.601 ± 0.043	0.7044 ± 0.0043	0.646 ± 0.0074	0.73 ± 0.0076	0.141 ± 0.032	0.181 ± 0.021	0.306 ± 0.038
FFFLLPRLFRCV	0.45 ± 0.017	0.791 ± 0.053	0.835 ± 0.012	0.707 ± 0.03	0.773 ± 0.011	0.445 ± 0.018	0.449 ± 0.012	0.5611 ± 0.0017
RIYIRVSLIAPR	0.509 ± 0.14	0.523 ± 0.026	0.59 ± 0.05	0.48 ± 0.021	0.5646 ± 0.0015	0.496 ± 0.034	0.48 ± 0.014	0.537 ± 0.017
LLSAVAHCYFIA	0.297 ± 0.019	0.595 ± 0.034	0.713 ± 0.0051	0.611 ± 0.01	0.738 ± 0.01	0.178 ± 0.013	0.191 ± 0.021	0.29 ± 0.02
MLVWCLFWVACV	0.236 ± 0.0031	0.203 ± 0.026	0.29 ± 0.0085	0.22 ± 0.028	0.355 ± 0.01	0.148 ± 0.011	0.168 ± 0.025	0.258 ± 0.0057
GLGFFMSFCFFL	0.484 ± 0.036	0.554 ± 0.015	0.579 ± 0.031	0.477 ± 0.06	0.567 ± 0.011	0.474 ± 0.0077	0.4562 ± 0.0037	0.55817 ± 0.00049
LMFSRSLFIVKC	0.295 ± 0.043	0.435 ± 0.035	0.438 ± 0.051	0.36 ± 0.038	0.514 ± 0.018	0.168 ± 0.0054	0.178 ± 0.025	0.343 ± 0.037
KGSFDLPTFSLF	0.504 ± 0.095	0.726 ± 0.026	0.776 ± 0.018	0.644 ± 0.026	0.769 ± 0.011	0.613 ± 0.015	0.64 ± 0.031	0.7445 ± 0.0073
LCFVSTWVWSVG	0.474 ± 0.037	0.498 ± 0.055	0.5203 ± 0.0015	0.395 ± 0.032	0.58 ± 0.0085	0.368 ± 0.016	0.401 ± 0.01	0.569 ± 0.007
FLRFVFSFTFFV	0.321 ± 0.0054	0.387 ± 0.0054	0.382 ± 0.019	0.408 ± 0.031	0.411 ± 0.0061	0.265 ± 0.0046	0.24 ± 0.028	0.3144 ± 0.0024
VPRLFSVIVVPV	0.488 ± 0.052	0.517 ± 0.04	0.5325 ± 0.0033	0.39 ± 0.033	0.5519 ± 0.0049	0.359 ± 0.012	0.389 ± 0.03	0.536 ± 0.018
WMSVKLLTLRLC	0.199 ± 0.0094	0.302 ± 0.091	0.357 ± 0.014	0.438 ± 0.04	0.551 ± 0.019	0.108 ± 0.031	0.105 ± 0.017	0.124 ± 0.0049
PTKRLFNNNKKI	0.308 ± 0.015	0.589 ± 0.13	0.686 ± 0.057	0.649 ± 0.03	0.731 ± 0.013	0.184 ± 0.0066	0.161 ± 0.03	0.408 ± 0.024
LFIWFVSSPFYC	0.452 ± 0.023	0.517 ± 0.025	0.5998 ± 0.0054	0.451 ± 0.017	0.63068 ± 0.0006	0.3134 ± 0.0029	0.343 ± 0.033	0.547 ± 0.01
